Results reported in patent US20100210517A1.

Tests used:
LRP2 CR89 Y1042W (human) = LRP2 CR89 Y1042W (human) (UniProt P98164); experiment: solid-phase assay; OD at the highest ligand concentration as percent of the highest OD of all ligands
[1] = target: recombinant human LRP1 ligand binding cluster II (amino acids 786-1165, C-terminal Fc) (human); experiment: competition ELISA, inhibition of RAP d3 (2 nM) binding to coated LRP1 cluster II-Fc
[2] = target: recombinant human LRP1 ligand binding cluster II (amino acids 786-1165, C-terminal Fc) (human); experiment: inhibitor pre-incubated with coated LRP1 cluster II-Fc, washed, then RAP d3 added; inhibition of RAP d3 binding

Chain of recombinant human LRP1 ligand binding cluster II (amino acids 786-1165, C-terminal Fc) (human) (Q07954 786-1165): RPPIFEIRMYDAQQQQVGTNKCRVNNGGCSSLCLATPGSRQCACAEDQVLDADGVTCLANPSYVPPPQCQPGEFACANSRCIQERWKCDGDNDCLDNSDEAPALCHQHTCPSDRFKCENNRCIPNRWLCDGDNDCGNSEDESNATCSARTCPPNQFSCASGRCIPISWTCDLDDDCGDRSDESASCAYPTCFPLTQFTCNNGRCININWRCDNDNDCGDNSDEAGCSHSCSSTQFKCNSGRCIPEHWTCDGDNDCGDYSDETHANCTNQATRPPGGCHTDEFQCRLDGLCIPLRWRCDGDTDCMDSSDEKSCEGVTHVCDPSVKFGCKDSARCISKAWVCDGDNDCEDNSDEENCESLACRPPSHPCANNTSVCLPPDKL
Chain of mature human RAP (full-length) (P30533 35-357): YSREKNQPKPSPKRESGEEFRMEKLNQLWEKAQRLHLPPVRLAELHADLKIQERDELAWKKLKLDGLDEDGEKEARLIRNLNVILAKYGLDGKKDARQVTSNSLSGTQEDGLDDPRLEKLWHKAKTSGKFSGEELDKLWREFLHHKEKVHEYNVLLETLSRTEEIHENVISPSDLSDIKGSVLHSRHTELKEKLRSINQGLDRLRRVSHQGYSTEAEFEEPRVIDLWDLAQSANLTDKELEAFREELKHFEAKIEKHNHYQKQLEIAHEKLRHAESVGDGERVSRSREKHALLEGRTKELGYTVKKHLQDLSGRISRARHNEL
Chain of RAP d3 (wild-type domain 3 of human RAP, amino acids 201-319 of mature RAP) (P30533 235-353 A264E): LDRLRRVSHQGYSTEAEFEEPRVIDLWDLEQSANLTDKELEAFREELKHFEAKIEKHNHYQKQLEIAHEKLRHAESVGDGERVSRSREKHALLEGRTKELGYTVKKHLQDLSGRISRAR
Chain of LRP2 CR89 Y1042W (human) (P98164 1025-1102 Y1043W limits assumed): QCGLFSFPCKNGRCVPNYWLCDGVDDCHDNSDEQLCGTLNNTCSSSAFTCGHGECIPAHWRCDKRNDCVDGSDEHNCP

Substance | % max bind (LRP2 CR89 Y1042W (human)) | EC50 [1] | fold better EC50 than monomeric mRAPc peptide [1] | EC50 [2]
RAP d3 (wild-type domain 3 of human RAP, amino acids 201-319 of mature RAP) (from UniProt P30533 235-353) (ligand) | 9% | – | – | –
mature human RAP (full-length) (from UniProt P30533 35-357) (ligand) | – | 0.5 nM | 64 fold | 0.3 nM
